Publication PMC6637868

Target: 6His-CspA (Xanthomonas oryzae pv. oryzae PXO99A, UniProt A0ACG7R7F9 8-71)
Experiment: EMSA
Settings: protein: recombinant; tags: N-terminal His6 (pET-30a-c(+)); label: 3' biotin

B1: PXO_RS01060 promoter probe (dsDNA)
DNA 1: ATGATGTCGCCCAATCCCTGACCAGATCGATGCGCATGCA
DNA 2: TGCATGCGCATCGATCTGGTCAGGGATTGGGCGACATCAT
binding result: binds

B2: PXO_RS11830 promoter probe (dsDNA)
DNA 1: CTGGCGGACGCCAATAGCGGTTGAATGGGCAAGAGGATCT
DNA 2: AGATCCTCTTGCCCATTCAACCGCTATTGGCGTCCGCCAG
binding result: binds
